# From PMC6220480
# Target: NKG2D-based chimeric antigen receptor of CYAD-01 cells (full length human NKG2D fused to the CD3zeta signalling domain) (UniProt P26718)
row,Molecule,cytokine secretion by CYAD-01 cells cultured with plate-bound ligand [µg/mL]
1,"MICB (major histocompatibility complex class I chain-related B), recombinant (from UniProt Q29980 23-383) (ligand)",> 0.25
2,"MICA (major histocompatibility complex class I chain-related A), recombinant (from UniProt Q29983 24-383) (ligand)",> 0.25
3,"ULBP2 (UL16 binding protein 2), recombinant (ligand) GRADPHSLCYDITVIPKFRPGPRWCAVQGQVDEKTFLHYDCGNKTVTPVSPLGKKLNVTTAWKAQNPVLREVVDILTEQLRDIQLENYTPKEPLTLQARMSCEQKAEGHSSGSWQFSFDGQIFLLFDSEKRMWTTVHPGARKMKEKWENDKVVAMSFHYFSMGDCIGWLEDFLMGMDSTLEPSAGAPLAMSS",> 5
4,"ULBP3 (UL16 binding protein 3), recombinant (ligand) DAHSLWYNFTIIHLPRHGQQWCEVQSQVDQKNFLSYDCGSDKVLSMGHLEEQLYATDAWGKQLEMLREVGQRLRLELADTELEDFTPSGPLTLQVRMSCECEADGYIRGSWQFSFDGRKFLLFDSNNRKWTVVHAGARRMKEKWEKDSGLTTFFKMVSMRDCKSWLRDFLMHRKKRLEPTAPPTMAPG",> 5
5,"ULBP1 (UL16 binding protein 1), recombinant (ligand) GWVDTHCLCYDFIITPKSRPEPQWCEVQGLVDERPFLHYDCVNHKAKAFASLGKKVNVTKTWEEQTETLRDVVDFLKGQLLDIQVENLIPIEPLTLQARMSCEHEAHGHGRGSWQFLFNGQKFLLFDSNNRKWTALHPGAKKMTEKWEKNRDVTMFFQKISLGDCKMWLEEFLMYWEQMLDPTKPPSLAPG",> 5
